Patent US20120058906A1

Experiments:
[1] = biological target: rHuman EGF R/Fc Chimera, CF (R&D Systems Cat#344-ER) (human) (UniProt P00533); test: ECL (MSD multi-spot), Fab […]; blank 376
[2] = biological target: rHuman ErbB2/Fc Chimera, CF (R&D Systems Cat#1129-ER) (human) (UniProt P04626); test: ECL (MSD multi-spot), Fab […]; blank 376
[3] = biological target: rHuman Erythropoietin R/Fc Chimera, CF (R&D Systems Cat#963-ER) (human) (UniProt P19235); test: ECL (MSD multi-spot), Fab […]; blank 376
[4] = biological target: rHuman HGF R/c-MET/Fc Chimera, CF (R&D Systems Cat#358-MT/CF) (human) (UniProt P08581); test: ECL (MSD multi-spot), Fab […]; blank 376
[5] = biological target: rHuman IGF-1 sR (IGF-1 sR), CF (R&D Systems Cat#391-GR) (human) (UniProt P08069); test: ECL (MSD multi-spot), Fab […]; blank 376
[6] = biological target: rHuman Notch-1/Fc Chimera, CF (R&D Systems Cat#3647-TK) (human) (UniProt P46531); test: ECL (MSD multi-spot), Fab […]; blank 376
[7] = biological target: rHuman EGF R/Fc Chimera, CF (R&D Systems Cat#344-ER) (human) (UniProt P00533); test: ECL (MSD multi-spot), Fab 210 nM; blank 833
[8] = biological target: rHuman ErbB2/Fc Chimera, CF (R&D Systems Cat#1129-ER) (human) (UniProt P04626); test: ECL (MSD multi-spot), Fab 210 nM; blank 833
[9] = biological target: rHuman Erythropoietin R/Fc Chimera, CF (R&D Systems Cat#963-ER) (human) (UniProt P19235); test: ECL (MSD multi-spot), Fab 210 nM; blank 833
[10] = biological target: rHuman HGF R/c-MET/Fc Chimera, CF (R&D Systems Cat#358-MT/CF) (human) (UniProt P08581); test: ECL (MSD multi-spot), Fab 210 nM; blank 833
[11] = biological target: rHuman IGF-1 sR (IGF-1 sR), CF (R&D Systems Cat#391-GR) (human) (UniProt P08069); test: ECL (MSD multi-spot), Fab 210 nM; blank 833
[12] = biological target: rHuman Notch-1/Fc Chimera, CF (R&D Systems Cat#3647-TK) (human) (UniProt P46531); test: ECL (MSD multi-spot), Fab 210 nM; blank 833
[13] = biological target: rHuman EGF R/Fc Chimera, CF (R&D Systems Cat#344-ER) (human) (UniProt P00533); test: ECL (MSD multi-spot), Fab 3.3 nM; blank 359
[14] = biological target: rHuman ErbB2/Fc Chimera, CF (R&D Systems Cat#1129-ER) (human) (UniProt P04626); test: ECL (MSD multi-spot), Fab 3.3 nM; blank 359
[15] = biological target: rHuman Erythropoietin R/Fc Chimera, CF (R&D Systems Cat#963-ER) (human) (UniProt P19235); test: ECL (MSD multi-spot), Fab 3.3 nM; blank 359
[16] = biological target: rHuman HGF R/c-MET/Fc Chimera, CF (R&D Systems Cat#358-MT/CF) (human) (UniProt P08581); test: ECL (MSD multi-spot), Fab 3.3 nM; blank 359
[17] = biological target: rHuman IGF-1 sR (IGF-1 sR), CF (R&D Systems Cat#391-GR) (human) (UniProt P08069); test: ECL (MSD multi-spot), Fab 3.3 nM; blank 359
[18] = biological target: rHuman Notch-1/Fc Chimera, CF (R&D Systems Cat#3647-TK) (human) (UniProt P46531); test: ECL (MSD multi-spot), Fab 3.3 nM; blank 359
[19] = biological target: rHuman EGF R/Fc Chimera, CF (R&D Systems Cat#344-ER) (human) (UniProt P00533); test: ECL (MSD multi-spot), Fab 52.5 nM; blank 467
[20] = biological target: rHuman ErbB2/Fc Chimera, CF (R&D Systems Cat#1129-ER) (human) (UniProt P04626); test: ECL (MSD multi-spot), Fab 52.5 nM; blank 467
[21] = biological target: rHuman Erythropoietin R/Fc Chimera, CF (R&D Systems Cat#963-ER) (human) (UniProt P19235); test: ECL (MSD multi-spot), Fab 52.5 nM; blank 467
[22] = biological target: rHuman HGF R/c-MET/Fc Chimera, CF (R&D Systems Cat#358-MT/CF) (human) (UniProt P08581); test: ECL (MSD multi-spot), Fab 52.5 nM; blank 467
[23] = biological target: rHuman IGF-1 sR (IGF-1 sR), CF (R&D Systems Cat#391-GR) (human) (UniProt P08069); test: ECL (MSD multi-spot), Fab 52.5 nM; blank 467
[24] = biological target: rHuman Notch-1/Fc Chimera, CF (R&D Systems Cat#3647-TK) (human) (UniProt P46531); test: ECL (MSD multi-spot), Fab 52.5 nM; blank 467
[25] = biological target: rHuman EGF R/Fc Chimera, CF (R&D Systems Cat#344-ER) (human) (UniProt P00533); test: ECL (MSD multi-spot) screen, antigen spotted on plate, Fab at 0.21 uM; blank spot 489
[26] = biological target: rHuman ErbB2/Fc Chimera, CF (R&D Systems Cat#1129-ER) (human) (UniProt P04626); test: as above
[27] = biological target: rHuman HGF R/c-MET/Fc Chimera, CF (R&D Systems Cat#358-MT/CF) (human) (UniProt P08581); test: as above
[28] = biological target: rHuman IGF-1 sR, CF (R&D Systems Cat#391-GR) (human) (UniProt P08069); test: as above
[29] = biological target: Recombinant Human DLL4 (R&D Systems Cat#1506-D4/CF) (human) (UniProt Q9NR61); test: MSD ECL multi-spot plate, antigen immobilized; Fab 12 nM; blank spot 573
[30] = biological target: rHuman HGF R/c-MET/Fc Chimera, CF (R&D Systems Cat#358-MT/CF) (human) (UniProt P08581); test: as above
[31] = biological target: rHuman Notch-1/Fc Chimera, CF (R&D Systems Cat#3647-TK) (human) (UniProt P46531); test: as above
[32] = biological target: Recombinant Human DLL4 (R&D Systems Cat#1506-D4/CF) (human) (UniProt Q9NR61); test: MSD ECL multi-spot plate, antigen immobilized; Fab 1.2 nM; blank spot 227
[33] = biological target: rHuman HGF R/c-MET/Fc Chimera, CF (R&D Systems Cat#358-MT/CF) (human) (UniProt P08581); test: as above
[34] = biological target: rHuman Notch-1/Fc Chimera, CF (R&D Systems Cat#3647-TK) (human) (UniProt P46531); test: as above
[35] = biological target: Recombinant Human DLL4 (R&D Systems Cat#1506-D4/CF) (human) (UniProt Q9NR61); test: MSD ECL multi-spot plate, antigen immobilized; Fab 0.12 nM; blank spot 264
[36] = biological target: rHuman HGF R/c-MET/Fc Chimera, CF (R&D Systems Cat#358-MT/CF) (human) (UniProt P08581); test: as above
[37] = biological target: rHuman Notch-1/Fc Chimera, CF (R&D Systems Cat#3647-TK) (human) (UniProt P46531); test: as above
[38] = biological target: Recombinant Human DLL4 (R&D Systems Cat#1506-D4/CF) (human) (UniProt Q9NR61); test: MSD ECL multi-spot plate, antigen immobilized; Fab 120 nM; blank spot 6749
[39] = biological target: rHuman HGF R/c-MET/Fc Chimera, CF (R&D Systems Cat#358-MT/CF) (human) (UniProt P08581); test: as above
[40] = biological target: rHuman Notch-1/Fc Chimera, CF (R&D Systems Cat#3647-TK) (human) (UniProt P46531); test: as above
[41] = biological target: Recombinant Human DLL4 (R&D Systems Cat#1506-D4/CF) (human) (UniProt Q9NR61); test: ECL (MSD multi-spot) screen, antigen spotted on plate, Fab at 0.12 uM; blank spot 2225
[42] = biological target: rHuman ErbB2/Fc Chimera, CF (R&D Systems Cat#1129-ER) (human) (UniProt P04626); test: as above
[43] = biological target: rHuman HGF R/c-MET/Fc Chimera, CF (R&D Systems Cat#358-MT/CF) (human) (UniProt P08581); test: as above
[44] = biological target: rHuman Notch-1/Fc Chimera, CF (R&D Systems Cat#3647-TK) (human) (UniProt P46531); test: as above
[45] = biological target: Recombinant Human DLL4 (R&D Systems Cat#1506-D4/CF) (human) (UniProt Q9NR61); test: MSD ECL multi-spot plate, antigen immobilized; Fab 42.112 nM; blank spot 323
[46] = biological target: rHuman Erythropoietin R/Fc Chimera, CF (R&D Systems Cat#963-ER) (human) (UniProt P19235); test: as above
[47] = biological target: rHuman HGF R/c-MET/Fc Chimera, CF (R&D Systems Cat#358-MT/CF) (human) (UniProt P08581); test: as above
[48] = biological target: rHuman Notch-1/Fc Chimera, CF (R&D Systems Cat#3647-TK) (human) (UniProt P46531); test: as above
[49] = biological target: Recombinant Human DLL4 (R&D Systems Cat#1506-D4/CF) (human) (UniProt Q9NR61); test: MSD ECL multi-spot plate, antigen immobilized; Fab 421.12 nM; blank spot 639
[50] = biological target: rHuman Erythropoietin R/Fc Chimera, CF (R&D Systems Cat#963-ER) (human) (UniProt P19235); test: as above
[51] = biological target: rHuman HGF R/c-MET/Fc Chimera, CF (R&D Systems Cat#358-MT/CF) (human) (UniProt P08581); test: as above
[52] = biological target: rHuman Notch-1/Fc Chimera, CF (R&D Systems Cat#3647-TK) (human) (UniProt P46531); test: as above
[53] = biological target: rHuman Erythropoietin R/Fc Chimera, CF (R&D Systems Cat#963-ER) (human) (UniProt P19235); test: ECL (MSD multi-spot) screen, antigen spotted on plate, Fab at 0.42 uM; blank spot 450

rHuman Erythropoietin R/Fc Chimera, CF (R&D Systems Cat#963-ER) (human), sequence (P19235 25-250, change not shown): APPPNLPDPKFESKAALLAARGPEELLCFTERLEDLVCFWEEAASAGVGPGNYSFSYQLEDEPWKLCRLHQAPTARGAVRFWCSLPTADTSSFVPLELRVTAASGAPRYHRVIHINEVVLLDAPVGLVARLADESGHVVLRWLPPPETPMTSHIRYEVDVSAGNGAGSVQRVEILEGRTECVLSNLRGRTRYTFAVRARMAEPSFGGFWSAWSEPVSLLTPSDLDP

Fab VH4-31_IGHD2-15*01_IGHJ2*01 & V1-4_IGLJ4*01
ECL signal [1]: 824 ECL signal
ECL signal [2]: 930 ECL signal
ECL signal [3]: 776 ECL signal
ECL signal [4]: 981 ECL signal
ECL signal [5]: 814 ECL signal
ECL signal [6]: 669 ECL signal
ECL signal [7]: 1620 ECL signal
ECL signal [8]: 1980 ECL signal
ECL signal [9]: 2120 ECL signal
ECL signal [10]: 2060 ECL signal
ECL signal [11]: 1430 ECL signal
ECL signal [12]: 1970 ECL signal
ECL signal [13]: 847 ECL signal
ECL signal [14]: 1030 ECL signal
ECL signal [15]: 695 ECL signal
ECL signal [16]: 849 ECL signal
ECL signal [17]: 743 ECL signal
ECL signal [18]: 726 ECL signal
ECL signal [19]: 1110 ECL signal
ECL signal [20]: 1510 ECL signal
ECL signal [21]: 1320 ECL signal
ECL signal [22]: 1290 ECL signal
ECL signal [23]: 911 ECL signal
ECL signal [24]: 1320 ECL signal
ECL signal [25]: 1300
ECL signal [26]: 1310
ECL signal [27]: 1530
ECL signal [28]: 1560

Fab VH3-23_IGHD3-10*01>3_IGHJ6*01 & O12_IGKJ1*01
ECL signal [29]: 2510 ECL signal
ECL signal [30]: 2700 ECL signal
ECL signal [31]: 2580 ECL signal
ECL signal [32]: 319 ECL signal
ECL signal [33]: 412 ECL signal
ECL signal [34]: 660 ECL signal
ECL signal [35]: 210 ECL signal
ECL signal [36]: 287 ECL signal
ECL signal [37]: 218 ECL signal
ECL signal [38]: 20600 ECL signal
ECL signal [39]: 15900 ECL signal
ECL signal [40]: 14400 ECL signal
ECL signal [41]: 6650
ECL signal [42]: 4580
ECL signal [43]: 5470
ECL signal [44]: 5500

Fab VH3-23_IGHD3-10*01>1′_IGHJ3*01 & O12_IGKJ1*01
ECL signal [45]: 404 ECL signal
ECL signal [46]: 759 ECL signal
ECL signal [47]: 565 ECL signal
ECL signal [48]: 437 ECL signal
ECL signal [49]: 1090 ECL signal
ECL signal [50]: 1300 ECL signal
ECL signal [51]: 1200 ECL signal
ECL signal [52]: 1060 ECL signal
ECL signal [53]: 1500
